Measurements reported in article PMC11659893.

What was measured:
[1] = molecular target: Tachlorophyllase H76S/E79S/C270S triple variant (Triticum aestivum); experiment: SEC-MALS + other: dynamic light scattering
[2] = molecular target: Triticum aestivum chlorophyllase (Tachlorophyllase), wild type (Triticum aestivum); experiment: SEC-MALS + other: dynamic light scattering

**Q.** For “Tachlorophyllase H76S/E79S/C270S triple variant (enzyme)”, which stoichiometry N [1] is on record?
**A.** Its stoichiometry N is 2.

**Q.** “Triticum aestivum chlorophyllase (Tachlorophyllase), wild type (enzyme)” was tested. Which stoichiometry N [2] did it give?
**A.** Its stoichiometry N is 2.
